Reference: patent US20210380675A1 (Kyowa Kirin, published 2021)

Legend:
[1] = target: T1, human IL-36α(R12), truncated (human, UniProt Q9UHA7 6-158); test: cell-based or functional assay
T1 chain: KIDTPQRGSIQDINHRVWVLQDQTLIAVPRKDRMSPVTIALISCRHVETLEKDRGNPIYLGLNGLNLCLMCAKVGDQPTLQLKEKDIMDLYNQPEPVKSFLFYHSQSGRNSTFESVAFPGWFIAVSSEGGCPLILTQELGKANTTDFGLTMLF

[2] = target: T2, cynomolgus IL-36α, truncated (cynomolgus macaque (Macaca fascicularis), UniProt Q9UHA7 14-158 (human entry), limits assumed); test: cell-based or functional assay
T2 chain: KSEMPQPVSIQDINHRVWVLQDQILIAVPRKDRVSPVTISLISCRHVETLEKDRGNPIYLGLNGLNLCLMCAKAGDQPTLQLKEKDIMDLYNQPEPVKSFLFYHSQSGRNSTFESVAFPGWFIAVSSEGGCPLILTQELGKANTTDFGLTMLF

[3] = target: T3, human IL-36α(Q12), truncated (human, UniProt Q9UHA7 6-158); test: SPR, Biacore T200, antibody on chip, IL-36 as analyte, 1:1 Langmuir fit
T3 construct: Untagged after removal of the His-SUMO tag
T3 sequence: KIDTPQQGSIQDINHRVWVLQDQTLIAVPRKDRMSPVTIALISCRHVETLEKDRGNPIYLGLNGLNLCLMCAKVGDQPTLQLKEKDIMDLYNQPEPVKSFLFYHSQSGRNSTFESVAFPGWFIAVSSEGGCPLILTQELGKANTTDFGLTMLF
Protocol: (§1) Antibodies were further tested for their binding to recombinant human or cynomolgus IL36α, IL-36γ in Biacore assays. In order to kinetically analyze the binding activity of the IL-36α and IL-36γ dual antagonist antibodies, the binding activity to human and cynomolgus IL-36α and IL-36γ was measured by surface plasmon resonance method (SPR). All of the following manipulations were carried out using a Biacore T200 (GE Healthcare Life Sciences, Pittsburgh, Pa.).
(§2) To determine antibody affinity to human and cynomolgus IL36, recombinant antibodies were immobilized on a CM5 sensor chip (cat# BR100012, GE Healthcare Life Sciences, Pittsburgh, Pa.) by an amine coupling chemistry. In particular, the kinetic assay was carried out by immobilizing on the chip approximately 2000 RU of recombinant antibody. Thereafter, recombinant human or cynomolgus IL36 proteins, serially diluted from a high concentration, were allowed to run at a flow rate of 30 μL/min onto the chip for 420 seconds. The dissociation time was 3600 seconds and the binding curves were measured at 25° C. Regeneration was performed with 10 mM glycine pH 1.5 for 30s. Alternatively, the analytes were injected with increasing concentrations in a single cycle, the surface not being regenerated between injections, using a method referred to as “single cycle kinetics.” In particular, either anti-human or anti-mouse Fc specific antibodies were immobilized on a CM5 sensor chip (cat# BR100012, GE Healthcare Life Sciences, Pittsburgh, Pa.) by an amine coupling chemistry. Thereafter, IL-36α and IL-36γ dual antagonist mouse/human chimeric or mouse antibodies were captured at approximately 200 RUs, followed by injections of increasing concentrations of recombinant human and cynomolgus IL36 proteins. The association time was 300 seconds, and the final dissociation time was 1200 seconds. At the end of the analyte injections, the surface was regenerated with either 3M MgCl₂ (anti-human Fc capture antibody) for 30 s or 10 mM glycine-HCl pH 1.7 for 180 s (anti-mouse IgG capture antibody).
(§3) The raw data were double referenced by subtraction of the signals from a reference flow cell without immobilized ligand and a buffer blank. The sensorgram corresponding to each concentration was obtained.

[4] = target: T4, cynomolgus IL-36γ, truncated (cynomolgus macaque (Macaca fascicularis), UniProt Q9NZH8 18-167 (human entry), limits assumed); test: cell-based or functional assay
T4 chain: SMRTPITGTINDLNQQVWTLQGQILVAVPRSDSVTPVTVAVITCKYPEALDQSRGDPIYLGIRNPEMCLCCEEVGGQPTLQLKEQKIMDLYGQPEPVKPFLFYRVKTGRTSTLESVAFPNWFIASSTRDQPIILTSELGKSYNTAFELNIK

human IL-36γ, truncated [5] = target: T5, human IL-36γ, truncated (human, UniProt Q9NZH8 18-169); test: cell-based or functional assay
T5 sequence: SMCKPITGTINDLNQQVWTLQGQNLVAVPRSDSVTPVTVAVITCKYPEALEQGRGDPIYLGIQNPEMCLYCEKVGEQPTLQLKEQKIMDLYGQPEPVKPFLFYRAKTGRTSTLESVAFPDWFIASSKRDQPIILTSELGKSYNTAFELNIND

human IL-36γ, truncated [6] = target: T5, human IL-36γ, truncated; test: cell-based or functional assay; remark: listed apart in the source
[7] = target: T1, human IL-36α(R12), truncated; test: SPR, Biacore T200, antibody on chip, IL-36 as analyte, 1:1 Langmuir fit
Protocol: as §1, §2, §3

human IL-36γ, truncated [8] = target: T5, human IL-36γ, truncated; test: as above
Protocol: as §1, §2, §3

[9] = target: T1, human IL-36α(R12), truncated; test: cell-based or functional assay
[10] = target: T1, human IL-36α(R12), truncated; test: SPR, Biacore, 1:1 Langmuir fit
Protocol: (§4) The humanized antibodies obtained in Example 6 were tested for their binding to recombinant human or cynomolgus macaque IL36a and IL-36γ in Biacore assays. The association time was set to 60 seconds, and the final dissociation time was set to 600 seconds. Equilibrium dissociation constant KD (kd/ka) of exemplary antibodies was determined using a 1:1 Langmuir fit model (see Tables 17-18 below).

[11] = target: T2, cynomolgus IL-36α, truncated; test: SPR, Biacore, 1:1 Langmuir fit
Protocol: as §4

[12] = target: T4, cynomolgus IL-36γ, truncated; test: SPR, Biacore, 1:1 Langmuir fit
Protocol: as §4

human IL-36γ, truncated [13] = target: T5, human IL-36γ, truncated; test: SPR, Biacore, 1:1 Langmuir fit
Protocol: as §4

[14] = target: T1, human IL-36α(R12), truncated; test: SPR, Biacore, 1:1 Langmuir fit; heads of c3 and c4 printed swapped
Protocol: as §4

[15] = target: T2, cynomolgus IL-36α, truncated; test: as above
Protocol: as §4

[16] = target: T4, cynomolgus IL-36γ, truncated; test: as above
Protocol: as §4

human IL-36γ, truncated [17] = target: T5, human IL-36γ, truncated; test: as above
Protocol: as §4

B1: m/h 144J171G (antibody, human IgG1, lambda, V domains shown)
VH: EVQLQQSGAELVEPGASVKLSCTASGFNIKDTYINWVKQRPEQGLEWIGRIDPANGYTRYAPKFQGKATITSDTSSNTAYLQLSSLTSEDAAVYSCSTLNYYGSSFFFDFWGQGTTLTVSS
VL: QAVVTQESALTTSPGETVTLTCRSSTGAVTTSNYANWVQEKPDHLFTGLIGGTNNRAPGVPARFSGSLIGDKAALTITGAQTEDEAIYFCALWYSNHWVFGGGTKLTVLG
notes: Mouse VH/VL joined to human IgG1 constant and human Ig lambda (IGLC2) constant; also called chimeric mouse/human 144J171G
IC50 of IL-8 secretion, HaCaT, 10 nM human IL-36α, FIG. 1B [1]: 39.2 nM | IC50 of IL-8 secretion, HaCaT, 10 nM cynomolgus IL-36α, FIG. 2A [2]: 19.3 nM | Kd [3]: 7.01 nM | koff [3]: 0.00868 s⁻¹ | kon [3]: 1.24e+06 M⁻¹ s⁻¹ | IC50 of IL-8 secretion, HaCaT, 10 nM cynomolgus IL-36γ, FIG. 2C [4]: 44.4 nM | IC50 of IL-8 secretion, HaCaT, 10 nM human IL-36γ, FIG. 1E (human IL-36γ, truncated [5]): 19.4 nM

B2: m/h 144D666C (antibody, human IgG1, lambda, V domains shown)
VH: EVQLQQSGAELVKPGASVKLTCTASGFNIKDTYIYWVKQRPAQGLEWIGRIDPANAYTKFDPKFQGKATLTADTSSNTAYLQLSSLTSEDTAVYYCTRFHWYGSSFFFDYWGQGTTLTVSS
VL: QAVVTQESALTTSPGETVTLTCRSSTGAVTTSNYANWVQEKPDHLFTGLIGGTDNRPPGVPARFSGSLIGDKAALTITGAQTEDEAIYFCALWYSNLWVFGGGTKLTVLG
notes: Mouse VH/VL joined to human IgG1 constant and human Ig lambda (IGLC2) constant; also called chimeric mouse/human 144D666C
IC50 of IL-8 secretion, primary human monocytes, 6 nM human IL-36γ, FIG. 5C (human IL-36γ, truncated [6]): 9.02 nM | IC50 of IL-8 secretion, primary human monocytes, 50 nM human IL-36γ, FIG. 5D (human IL-36γ, truncated [6]): 38.1 nM | Kd [7]: 25.1 nM | koff [7]: 0.00219 s⁻¹ | kon [7]: 87300 M⁻¹ s⁻¹ | Kd (human IL-36γ, truncated [8]): 3.06 nM | koff (human IL-36γ, truncated [8]): 0.000342 s⁻¹ | kon (human IL-36γ, truncated [8]): 112000 M⁻¹ s⁻¹ | Kd [3]: 1.75 nM | koff [3]: 0.000834 s⁻¹ | kon [3]: 476000 M⁻¹ s⁻¹

B3: m/h 144L249B (antibody, human IgG1, lambda, V domains shown)
VH: EVQLQQSGAELVKPGASVKLSCTASGFNIKDTYIYWVKQRPEQGLEWIGRIDPAIGTTRYDPKFQGKATLTADTSSNTAFLQLSSLTSEDTAVYYCARYDYSGSSFYFDYWGRGTTLTVSS
VL: QAVVTQESALTTSPGETVTLTCRSSTGAVTTSNYANWVQEKPDHLFTGLIGGTNNRAPGVPARFSGSLIGDKAALTITGAQTEDEAIYFCALWYSNHLVFGGGTKLTVLG
notes: Mouse VH/VL joined to human IgG1 constant and human Ig lambda (IGLC2) constant; also called chimeric mouse/human 144L249B
IC50 of IL-8 secretion, primary human monocytes, 40 nM human IL-36α, FIG. 5B [9]: 38.3 nM | Kd [3]: 1.02 nM | koff [3]: 0.000825 s⁻¹ | kon [3]: 805000 M⁻¹ s⁻¹

B4: 144J171G (antibody, V domains shown)
VH: EVQLQQSGAELVEPGASVKLSCTASGFNIKDTYINWVKQRPEQGLEWIGRIDPANGYTRYAPKFQGKATITSDTSSNTAYLQLSSLTSEDAAVYSCSTLNYYGSSFFFDFWGQGTTLTVSS
VL: QAVVTQESALTTSPGETVTLTCRSSTGAVTTSNYANWVQEKPDHLFTGLIGGTNNRAPGVPARFSGSLIGDKAALTITGAQTEDEAIYFCALWYSNHWVFGGGTKLTVL
IC50 of IL-8 secretion, primary human monocytes, 50 nM human IL-36γ, FIG. 5D (human IL-36γ, truncated [6]): 113 nM | IC50 of IL-8 secretion, HaCaT, 10 nM human IL-36α, FIG. 1B [1]: 27 nM | IC50 of IL-8 secretion, HaCaT, 10 nM cynomolgus IL-36α, FIG. 2A [2]: 16.8 nM | IC50 of IL-8 secretion, HaCaT, 10 nM cynomolgus IL-36γ, FIG. 2C [4]: 82.7 nM | IC50 of IL-8 secretion, HaCaT, 10 nM human IL-36γ, FIG. 1E (human IL-36γ, truncated [5]): 19.2 nM

B5: m/h 144L124B (antibody, human IgG1, lambda, V domains shown)
VH: EVQLQQSGAELVKPGASVKLSCTASGFNIKDTYIYWVKQRPEQGLEWIGRIDPANGYTRYDPKFQGKATMTADTSSNTAYLQLSSLTSEDTAVYYCARYEYYDSSFYFDYWGQGTTLTVSS
VL: QAVVTQESALTTSPGETVTLTCRSSTGAVTTSNYANWVQEKPDHLFTGLIGGTNNRAPGVPARFSGSLIGDKAALTITGAQTEDEAIYFCALWYSNHLVFGGGTKLTVLG
notes: Mouse VH/VL joined to human IgG1 constant and human Ig lambda (IGLC2) constant; also called chimeric mouse/human 144L124B
IC50 of IL-8 secretion, primary human monocytes, 40 nM human IL-36α, FIG. 5B [9]: 27.5 nM | Kd [3]: 1.86 nM | koff [3]: 0.0227 s⁻¹ | kon [3]: 1.22e+07 M⁻¹ s⁻¹

B6: 144D464A LV10re HV10b (antibody, V domains shown)
VH: QVQLVQSGAEVKKPGASVKVSCKASGFNIKDTYIHWVRQAPGQGLEWIGRIDPAIGTTRYDPKFQGRATITTDTSTSTVYLEFSSLRSEDTAVYYCARLHYFGNNFFFDYWGQGTLVTVSS
VL: QAVVTQEPSLTVSPGGTVTLTCRSSSGAVTTSNYANWVQEKPGQLFAGLIGGTNDRAPGVPARFSGSLLGGKAALTLSGAQPEDEAIYFCALWFSNHWVFGGGTKLTVL
notes: Humanized
Kd [10]: 1.87 nM | Kd [11]: 1.12 nM | Kd [12]: 1.02 nM | Kd (human IL-36γ, truncated [13]): 1.2 nM | koff [14]: 0.000429 s⁻¹ | kon [14]: 229000 M⁻¹ s⁻¹ | koff [15]: 0.000415 s⁻¹ | kon [15]: 372000 M⁻¹ s⁻¹ | koff [16]: 0.00047 s⁻¹ | kon [16]: 460000 M⁻¹ s⁻¹ | koff (human IL-36γ, truncated [17]): 0.000425 s⁻¹ | kon (human IL-36γ, truncated [17]): 353000 M⁻¹ s⁻¹

B7: 144D464A LV11re HV10b (antibody, V domains shown)
VH: QVQLVQSGAEVKKPGASVKVSCKASGFNIKDTYIHWVRQAPGQGLEWIGRIDPAIGTTRYDPKFQGRATITTDTSTSTVYLEFSSLRSEDTAVYYCARLHYFGNNFFFDYWGQGTLVTVSS
VL: QAVVTQEPSLTVSPGGTVTLTCRSSSGAVTTSNYANWVQEKPGQLFAGLIGGTNDRAPGVPARFSGSLLGGKAALTISGAQPEDEAIYFCALWFSNHWVFGGGTKLTVL
notes: Humanized
Kd [10]: 1.86 nM | Kd [11]: 1.1 nM | Kd [12]: 1.04 nM | Kd (human IL-36γ, truncated [13]): 1.21 nM | koff [14]: 0.000422 s⁻¹ | kon [14]: 226000 M⁻¹ s⁻¹ | koff [15]: 0.000407 s⁻¹ | kon [15]: 369000 M⁻¹ s⁻¹ | koff [16]: 0.000463 s⁻¹ | kon [16]: 446000 M⁻¹ s⁻¹ | koff (human IL-36γ, truncated [17]): 0.00042 s⁻¹ | kon (human IL-36γ, truncated [17]): 346000 M⁻¹ s⁻¹
